Measured values as given in paper PMC2364237.

Molecular target: GST-Grb2(SH2) SH2 domain (UniProt P62993)
Assay: GST-Grb2(SH2) pull-down, anti-HA blot
Conditions: reference: HA-ShcWT; sites Y317

binding against the reference: weaker
Substance: HA-tagged Shc (52 kDa isoform) (from UniProt P29353-2) HA-ShcY317F
